# According to paper PMC4484809, “Formation of a Trimeric Xpo1-Ran[GTP]-Ded1 Exportin Complex Modulates ATPase and Helicase Activities of Ded1”:
# Assays:
# [1] = biological target: Ded1 wild type (Saccharomyces cerevisiae, UniProt P06634 1-604); assay: EMSA; 3 mM AMP-PNP; challenged with unlabeled 41mer RNA; EMSA: 50 mM Tris pH 7.8, 60 mM NaCl, 2 mM MgCl2, 0.1 mg/mL BSA, 5% glycerol, 1 U/uL RNasin Plus, 0.01% NP-40, 1 mM DTT; 900 nM Ded1, 10 nM RNA, 20 min room temperature, then 41mer competitor RNA (27 uM solution) 1 min before 7% native PAGE at 4 C; conditions: protein: recombinant; tags: His-tag removed with preScission protease; N-terminal GP from vector; single-stranded
# [2] = biological target: Ded1 sNES (Saccharomyces cerevisiae, UniProt P06634 =D+1-604, A2D;E6K;Q7K;V8F;Q9G;N10T;internal_change); assay: EMSA; 3 mM AMP-PNP; bound to the same extent as wild-type Ded1; EMSA: 50 mM Tris pH 7.8, 60 mM NaCl, 2 mM MgCl2, 0.1 mg/mL BSA, 5% glycerol, 1 U/uL RNasin Plus, 0.01% NP-40, 1 mM DTT; 900 nM Ded1, 10 nM RNA, 20 min room temperature, then 41mer competitor RNA (27 uM solution) 1 min before 7% native PAGE at 4 C; conditions: protein: recombinant; tags: His-tag removed with preScission protease; N-terminal GP from vector; single-stranded
# [3] = biological target: Xpo1;Ran[GTP] Q71L (Saccharomyces cerevisiae;Saccharomyces …, UniProt P30822;P32835 1-1071;1-219, |Q71L); assay: EMSA; no Ded1; no significant supershift; EMSA: 50 mM Tris pH 7.8, 60 mM NaCl, 2 mM MgCl2, 0.1 mg/mL BSA, 5% glycerol, 1 U/uL RNasin Plus, 0.01% NP-40, 1 mM DTT; 900 nM Ded1, 10 nM RNA, 20 min room temp
binder,measurement,setting,value
CGAAUUCAAAACAAAACAAAACUAG (ssRNA) [25mer FAM-labeled ssRNA],binding result,[1],binds
same,binding result,[2],binds
same,binding result,[3],no binding
